Experiment: yeast display, Sf9 membrane polyspecificity reagent, FACS + sequencing; frameworks hold sequencing errors
Outline: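 Synthetic nanobody libraries on Saccharomyces cerevisiae BJ5465 were galactose-induced for 36–48 hours, stained 1 hour at 4 °C with 10% biotinylated, detergent-solubilized Sf9 membrane reagent and enriched on streptavidin microbeads. FACS then separated cells into low and high (top ~1%) gates by anti-HA (expression) and streptavidin (reagent binding) fluorescence. Genes were colony-PCR amplified, MiSeq 2 × 250 sequenced and CDR-length filtered. A clone's polyreactivity label is that of its gate of origin.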

| Sequence | polyreactivity (PSR sort gate) |
| --- | --- |
| QVQLVESGGGLVQAGGSLRLSCAASGSIFHFYVMGWYRQAPGKERELVAGISSSGGRTYYADSVKGRFTISRDNAKNTFYLQMNSLKPEDTAVYYCANDMYHSVGRYDYWGQGTQVTVSS | low polyreactivity |
| QVQLVESGGGLVQAGGSLRLSCAASGRTFAIYAMGWYRQAPGKERELVASISSSGDRTYYADSVKGRFTISRDNAKNTVYLQMNSLKPEDTAVYYCAARWRYTYYYWGQGTQVTVSS | high polyreactivity |
| QVQLVESGGGLVQAGGSLRLSCAASGYILTHYAMGWYRQAPGKERELVAAITRVGNSNYADSVKGRFTISRDNAKNTVYLQMNSLKPEDTAVYYCAADGVASLFGDPPTEFDYWGQGTQVTVSS | low polyreactivity |
| QVQLVESWGGLVQAGGSLRLSCAASGSTFSPYAMGWYRQAPGKEREMVATINRGGGSTNYADSVKGRFTISRDNAKNTVYLQMNSRKPEDTAVYYCARVNAAVGYYYRYEYWGHGTQVTVSS | high polyreactivity |
| QVQLVESGGGLVQAGGSLRLSCAASGRTFGGYAMGWYRQAPGTERELVAAIRSRGGRTYYADSVKGRFTISRDNAKKSVYLQMNSLKPEDTAVYYCATYGNKWGEDYWGQGTQVTVSS | high polyreactivity |
| QVQLVESGVGLVQAGGSLRLSCAASGGTFPYYAMGWYRQAPGKERELVAAISRSGARTYYADSVKGRFTISRDNAKNTVYLQMNSLKPEDTAVYYCATDNTYGYDYWGQGTQVTVSS | high polyreactivity |
| QVQLVESGGGLVQAGGSLRLSCAASGIIFTDNAMGWYRQAPGKERELVATISWSTDNTYYADSVKGRFTISRDNAKNTVYLQMNSLKPEDTAVYYCAAEEYYAYWYQYDYWGQGTQVTVSS | low polyreactivity |
| QVQLVESGGGLVQAGGSLRLSCAASGRTFGVYAMGWYRQAPGKERELVPAIRWSGGGTYYADSVKGRFTISRDTAKNTVYVQMNSLKPEDTAVYYCAASFQNSPYTRYTDMYYWGQGTQVTVTS | low polyreactivity |
| QVQLGDSGGGLVQAGGRLGLSCAASGSTFGRYAMGWYRPAPGKERELVAAISSSGGRTYYADSVKGRFTISRDNAKNTVYLQMNSLKPEDTAVYYCASDARFRQKYEYWGQGTQVTVSS | high polyreactivity |
| QVQLVESGGGLVQAGGSLRLSCAASGRIFYIYAMGWYRQAPGKERELVATITGSGGGTYYADSVKGRFTISRDNAKNTVYLQMNSLKPEDTAVYYCAAQVLTDPDNYWGQGTQVTVSS | low polyreactivity |
| QVQLVESGGGLVQAGGSLRLSCAASGRTFRYYAMGWYREAPGKERELVAAISSSGDRTYYADSVKGRFTISRDNAKNTVYVQMNSLKPEDTAVYYCAKDSYRRYWGQGTQVTVSS | high polyreactivity |
| QVQLVESGGGLVQAGGSLRLSCAASGFIFYDYAMGWYRQAPGKERELVAAITVDGGTTYYADSVKGRFTISRDNAKNTVYLQMNSLKPEDTAVYYCAADTYYGFDSNYEYWGQGTQVTVSS | low polyreactivity |
| QVQLVESGGGLVQAGGSLRLSCAASGSTFYGNAMGWYRQAPGKERELVAAISRGGGSTYYADSVKGRFTISRDNAKNTVYLQMNSLKPEDTAVYYCAATRYLHPWYYPYYYWGQGTQVTVSS | low polyreactivity |
| QVQLVESGGGLVQAGGSLSLSCAASGRIFADNAMGWYRQSPGKESELVADITYSGGSTYYAESVKGRFTISRDNAKNTLYLQMNSLNPEDTAFYYCAKQCVDYWGQGTQVTVSS | low polyreactivity |
| QDQLVESGGGLVHAGGSLRLSCAASGSTFQYYVMGWYRQAPGKERELVAAITWSGGSTYYADSVKGRFTISRDNAKNTVYLQMNSLKPEDTAVYYCKAASGPDFEYEYWGEGTQVTVSS | low polyreactivity |
| QVQLVESGGGLVQPGGSLRLSCAASGIIFGYYAMGWYRQAPGKERVLDAAISWSGGSTYYADSVKGRVTISRDNAKNTVYFQMNSLKPEDTAVYYCAAVVRRKSGNDTWRYNYWGQGTQVTVSS | high polyreactivity |
| QVQLVESGGGLVQAGGSLRLSCAASGFTFYPNTMGWYRQAPGKERELVAAISSSGGRTYYADSVKGRFTISRDNAKNTVYLQMNSLKPEDTAVYYCNAAKWLTSGGLDYWGLGTQVTVSS | high polyreactivity |
| QVQLVESGGGLVQAGGSLRLTCADSGIIYTYNAMRWYRQAPGKEMEFVATITWSGGSTYYADSVKGRFTISRDNAMNTVYFQMNSLKPEDTAVYYCAVDYSRHGYWSPVYEFNYWGQGTQVTVSS | low polyreactivity |
| QVQLVESGGGLVQAGGSLRLSCAASGNIFTFNAMGWYRQAPGKERELVAAIRSGGSTNYADSVKGRFTISRDNAKNTVYLQMNSLKPEDTAVYYCAAKRYVQGYVYRYGYWGQGTQVTVSS | high polyreactivity |
| QVQLVESGGGLVQAGGSLRLSCAASGLTFGAYAMGWYRQAPGKERELVAAISDSGGTTYYADSVKGRFTISRDNAKNTVYLQMNSLKPEDTAVYYCAAVKSDVRYRYDYYWGQGTQVTVSS | low polyreactivity |
| QVQLVESGGGLVQAGGSLRLSCAASGFIFKRYAMGWYRQAPGKERELVAAITSGGSTHYADSVKGRFTISRDNAKNTVYLQMNSLKPEDTAVYYCAAVPRVNWSRYVYFWYDYWGQGTQVTVSS | high polyreactivity |
| QVQLVESGGGLVQAGGSLRLSCDASGRIFGSYAMGWYRQAPGKERELVAAITYSGGRTYYADSVKGRFTISRDNAKNTVYLQMNSLKPEDTAVYYCNALGRLTSQYDYWGQGTQVTVSS | high polyreactivity |

| Sequence | polyreactivity (PSR sort gate) |
| --- | --- |
| QVQLVESGGGLVQAGGSLRLSCAASGSIFQFYAMGWYRQAPGKERELVAAITGDGSTDYADSVKGRFTISRDNAKNTVYLQMNSLKPEDTAVYYCAADLWRYLGWYYIYHYDYWGQGTQVTVSS | low polyreactivity |
| QVQLVESGGGLVQAGGSLRLSCSASGITFNANAMGWYRQATGKERELVAAISLSGGRTYYADSVKGRFTISRDNAKNTVYLQMNSLKPEDTAVYYCKVLGNYYGKFDYWGQGTQVTVSS | high polyreactivity |
| QVQLVESGGGLVQAGGSLRLSCAASGFIFLYYAMGWYIQAPGKERELVAAITTRGGRTYYADSVKGRFTISRDNAKNTVYLQMNSLKPEDTAVYYCAADHLYWGLEYESWGQGTQVTVSS | low polyreactivity |
| QVQLVESGGGLLQAGGSLRLSCAASGSTFGYYAMGWYRQAPGKERELVAAITRSGTNTYYADSVKGRFTISRDNAKNTVYLQMNSLKPEDTAVYYCNAVSRRRSDYWGQGTQVTVSS | high polyreactivity |
| QVQLVESGGGLVQAGGSLRLSCAVSGRTFYYYAMGWYRQAPGKERELVAAISSSGGSTYYADSVKGRFTISRDNAMNTVYLQLNRLKPEDTAVYYCNAYTTRSYGFDYWGQGTQVTVSS | high polyreactivity |
| QVQLVESGGRLVQAGGSLRLSCAASGLTLFRYDQGWYRQAPGKERELVAAIDYGGGTYYADSVKGRFTISRDNAKNTVYLQMNSLKPEDTAVYYCAVEPEYKYYEGDYWGQGTQVTVSS | low polyreactivity |
| QVQLVESGGGLVQAGGSLRLSCAASGSISVGYTMGWYRQAPGKEREFVAVITGTGGRTRYSDSVKGRFTISRDNAKNTVYLQMNSLKPEDTAGYYCAAKIRWRGALYDYWGQGTQVTVSS | high polyreactivity |
| QVQLVESGGGLVQAGGSLRLSCAASGRTFGYYTMGWYRQAPGKEREFVAAISGSGTITFYADSVKGRFTISRDNAKNTVYLQMNSLKPEDTAVYYCAADYRYGGSRGYRYDYWGQGTQVTVSS | low polyreactivity |
| QVQLVESGGGLVQAGGSLRLSCAASGFTFPVYAMGWYRQAPGKERELVAAITYNGGSTYDADSVKGRFTISRDNAKHTVYFQMNSLKPEDTAVSYCAAEVFLRSLGYWYDYWGQGTQVTVSS | high polyreactivity |
| QLQLVESGGGLVKAGGSLRLSCAASGFIFNCYAMGWNRQAPVKEREMVARISRSGGSTYYADSVKGRFTISRDNAKNTVYLQMNSLKPEDTAVYYCAADYYWSLHQRMDYWGQGTQVTVSS | high polyreactivity |
| QVQLVESGGGLVQAGGSLRLSCAASGSIFNRNVMGWYRQAPGKERELVAAITWSGASTYYADSVKGRFTISRDNAKNTVYLQMNSLKPEDTAVYYCAATQYYRGYDYWGQGTQVTVSS | high polyreactivity |
| QVQLVESGGGLVQAGGSLRLSCAASGSTFSDYAMGWYRPAPGKERELVAAISSDGSTYYADSVKGRFTISRDNANNTVYLQMNILKPEDTAVYYCAKDVILVWPYATGRDYCGQGTQVTVSS | low polyreactivity |
| QVQLVESGGGLFQAGGRLRLSCAATGSIFSVYTMGWYRQAPGKERELVATISFSVGRTYYADSVKGRFTISRDNEKNSVYLQMNSLKPEDTAVYYCNARSCGGYYHWGQGTQVTVSS | high polyreactivity |
| QVQLVESGGGLVQAGGSLRLSCADSGSISYYAIGWYRQAPRKESELVAAISSSGGSTYYADSVNGRFTISRDNAKNTVYLQMNSLKPEDTAVYYCAAAVTGCYASDYWGQGTQVTVSS | high polyreactivity |
| PVQLVESGGGLVQAGGSLRLSCAASGRTYYTNAIGWYRQAAGNVRELVAAITGDGTSTYYADSVKGRFTMSRDNATYTVFLQINSLKPEDTAVYYCAATGGDRYEAYSYWGQGTQVTVSS | low polyreactivity |
| QVQLVESCGGLVQAGGSLRLSCAASGSIFYFNAMGWYREAPGKERELVAAINISGSSTSYADSVKGRFTISRDNAKNTVYLQMNSLKPEDTAVYYCAAEDEPRILIVRVWDYYWGQGTQVTVSS | low polyreactivity |
| QVQLVESGGGLVQAGGSLRLSCAASGRTFGTNTMGWYRPAPGKERELVAAISRSGVRTYYADSVKGRFTISRDNAKNTVYLQMKSLKPEDTAVYYCATDYKVHGFDYWGQGTQVTVSS | high polyreactivity |
| QVQLVESGGGLVQAGGSLRLSCAASGRTFDAYAMGRYRQAPGKERELVARITSGGSTKYADSVKGRFTISRDNAKNTVYLQMNSLKPEDTAVYYCAAAQYWPSFFSNRVYYRNDYWGQGTQVTVSS | high polyreactivity |
| QVQLVESGGGLVQAGGSLRLSCAASGSTFPYYTMGWYRQAPGKERELVAAITWRGGRTYYADSVKGRFTISRDNAKNTVYLQMNSLKPEDTAVYYCAAVTWVHRYSRFHPFVAFDFWGQGTQVTVSS | high polyreactivity |
| QVQLEESGGGLVQAGGSLRLTCAASGIIFRFYAMRCDRQAPGKERELVAVITSRSDSTYYADSVKGRFTISRDYAKNTVYLQMNSVKPEDTAVYYCNARYPWYYRYSTYDYWGQGTQVTVSS | high polyreactivity |
| QVQLVESGGGLVQAGGSLRLSCAASGSIFPYYTMGWYRQAPGKERELVAAISGSGTSTYYADSVKGRFTISRDNAKNTVYLQMNSLKPEDTADYYCAAPDPDKVRSEGYGYWGQGTHVTVSS | low polyreactivity |
